Target: mutant E-cadherin-GFP (Y753, 754, 859, and 876 mutated into F) (human) (UniProt P12830)
Experiment: co-IP; lysates of HEK293T cells transiently transfected with WT or mutant E-Cdh-GFP; IP with anti-GFP antibody; Western blot for α- and β-Ctn, densitometry relative to the WT band set to 1

Sequence of UniProt P12830 (P12830 other isoform, or with tags, fused parts or gaps mutant): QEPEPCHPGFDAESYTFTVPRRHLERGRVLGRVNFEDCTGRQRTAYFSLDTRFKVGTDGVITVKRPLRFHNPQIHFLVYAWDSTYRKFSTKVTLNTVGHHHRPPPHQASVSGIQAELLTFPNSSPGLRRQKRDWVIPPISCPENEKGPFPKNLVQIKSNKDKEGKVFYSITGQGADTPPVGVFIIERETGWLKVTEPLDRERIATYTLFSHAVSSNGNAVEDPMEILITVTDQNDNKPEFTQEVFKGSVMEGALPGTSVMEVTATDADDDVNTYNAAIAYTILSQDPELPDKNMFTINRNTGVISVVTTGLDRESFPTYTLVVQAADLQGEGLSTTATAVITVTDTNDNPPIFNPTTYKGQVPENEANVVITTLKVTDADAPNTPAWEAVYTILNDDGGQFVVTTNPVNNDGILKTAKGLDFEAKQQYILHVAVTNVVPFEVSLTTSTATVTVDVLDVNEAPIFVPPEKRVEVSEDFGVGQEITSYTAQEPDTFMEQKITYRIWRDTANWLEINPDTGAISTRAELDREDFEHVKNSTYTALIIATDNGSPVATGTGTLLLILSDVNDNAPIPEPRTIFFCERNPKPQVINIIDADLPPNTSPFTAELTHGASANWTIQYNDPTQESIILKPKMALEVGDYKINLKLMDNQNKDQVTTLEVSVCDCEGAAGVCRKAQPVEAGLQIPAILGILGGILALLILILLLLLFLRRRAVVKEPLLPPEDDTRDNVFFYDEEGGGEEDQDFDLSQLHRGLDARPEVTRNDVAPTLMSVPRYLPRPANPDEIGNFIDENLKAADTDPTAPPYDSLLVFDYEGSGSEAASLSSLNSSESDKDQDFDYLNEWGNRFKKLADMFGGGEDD

reduction of co-immunoprecipitation relative to WT E-Cdh-GFP [%] | Substance
60 | β-catenin (from UniProt P35222 1-781) (natural protein)
60 | α-catenin (from UniProt P35221 1-906) (natural protein)

Reference: article PMC6966528
